The text below walks through data of article PMC9861681, “Preparation, Purification and Characterization of Antibacterial and ACE Inhibitory Peptides from Head Protein Hydrolysate of Kuruma Shrimp, Marsupenaeus japonicus” (Molecules, 2023).

The target of experiment [1] is T1, angiotensin I-converting enzyme (ACE, EC 3.4.15.1) from rabbit lung (rabbit, UniProt P12822 34-1310).
T1 sequence (looked up): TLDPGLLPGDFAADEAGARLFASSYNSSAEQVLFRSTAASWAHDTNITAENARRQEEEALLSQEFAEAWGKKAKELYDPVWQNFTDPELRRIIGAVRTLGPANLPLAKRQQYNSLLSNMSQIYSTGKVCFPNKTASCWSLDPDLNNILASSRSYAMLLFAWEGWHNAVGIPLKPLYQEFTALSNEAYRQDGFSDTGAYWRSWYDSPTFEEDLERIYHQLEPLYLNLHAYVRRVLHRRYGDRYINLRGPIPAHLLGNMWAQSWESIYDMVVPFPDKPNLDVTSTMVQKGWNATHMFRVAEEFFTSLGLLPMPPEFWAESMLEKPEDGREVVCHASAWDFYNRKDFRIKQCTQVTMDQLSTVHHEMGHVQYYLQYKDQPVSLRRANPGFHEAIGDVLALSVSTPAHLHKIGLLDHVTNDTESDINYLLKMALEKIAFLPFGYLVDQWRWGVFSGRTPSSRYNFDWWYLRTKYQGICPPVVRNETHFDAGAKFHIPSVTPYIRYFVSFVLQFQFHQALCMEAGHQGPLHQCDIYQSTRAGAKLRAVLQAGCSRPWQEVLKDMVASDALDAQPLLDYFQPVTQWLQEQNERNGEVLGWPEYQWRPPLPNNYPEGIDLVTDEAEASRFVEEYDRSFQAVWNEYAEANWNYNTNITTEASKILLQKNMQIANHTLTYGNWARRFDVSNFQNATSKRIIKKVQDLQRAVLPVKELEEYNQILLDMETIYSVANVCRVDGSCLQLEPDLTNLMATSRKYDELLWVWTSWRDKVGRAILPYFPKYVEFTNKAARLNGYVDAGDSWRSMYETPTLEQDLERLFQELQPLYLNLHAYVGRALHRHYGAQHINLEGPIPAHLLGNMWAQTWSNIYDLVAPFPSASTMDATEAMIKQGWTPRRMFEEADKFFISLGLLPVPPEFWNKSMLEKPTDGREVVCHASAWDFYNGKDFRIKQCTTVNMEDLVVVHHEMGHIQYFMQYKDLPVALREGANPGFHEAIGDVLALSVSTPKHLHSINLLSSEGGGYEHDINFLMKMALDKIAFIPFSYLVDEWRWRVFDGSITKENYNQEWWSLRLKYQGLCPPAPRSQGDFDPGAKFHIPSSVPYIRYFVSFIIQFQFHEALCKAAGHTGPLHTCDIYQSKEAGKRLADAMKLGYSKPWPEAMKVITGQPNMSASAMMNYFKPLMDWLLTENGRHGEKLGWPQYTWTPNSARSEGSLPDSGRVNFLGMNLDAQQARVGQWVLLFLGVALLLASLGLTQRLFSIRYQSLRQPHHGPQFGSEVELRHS
Briefly: cell-based or functional assay.

The target of experiment [2] is T1, angiotensin I-converting enzyme (ACE, …). Briefly: cell-based or functional assay. The source holds these as a separate data set.

In the case of ARL [ACE inhibitory peptide Ala-Arg-Leu/Ile (ARL/I)], in experiment [1], the “IC50 of ACE inhibitory activity (HHL substrate, hippuric acid at 228 nM)” value turned out to be 45 µg/mL. For the same molecule, the “IC50 of ACE inhibitory activity, calculated from the molecular mass of ARL/I and Table 2” value in experiment [2] is 126 µM.
